In the assay the target is FcεRIα subunit of the high-affinity IgE receptor (FcεRI) (human) (UniProt P12319). The assay can be described thus: cell-based or functional assay.
FcεRIα subunit of the high-affinity IgE receptor (FcεRI) (human), sequence (P12319 26-257 limits assumed, form in doubt): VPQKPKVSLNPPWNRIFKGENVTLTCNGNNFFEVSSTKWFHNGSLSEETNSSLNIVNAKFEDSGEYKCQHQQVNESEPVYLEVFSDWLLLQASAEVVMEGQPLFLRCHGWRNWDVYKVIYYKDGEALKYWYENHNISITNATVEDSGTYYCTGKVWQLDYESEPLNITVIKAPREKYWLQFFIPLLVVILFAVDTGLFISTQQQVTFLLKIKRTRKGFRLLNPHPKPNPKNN

“anti-FcεRIα antibody, clone AER-37 (CRA1)” registered a positive population mean for CD63 of 52.7% and a positive population mean for CD107a of 71.2%.

(Values after US20240091164A1.)
